Reference: patent publication US20240325564A1, “PHARMACEUTICAL COMPOSITION CONTAINING ANTI-TROP2 ANTIBODY DRUG CONJUGATE AND ITS APPLICATION” (JIANGSU HENGRUI PHARMACEUTICALS CO., LTD., priority 2021, published 2024)

T1: TROP-2 expressed on cells (UniProt P09758 27-323, limits assumed)
T1 sequence (looked up): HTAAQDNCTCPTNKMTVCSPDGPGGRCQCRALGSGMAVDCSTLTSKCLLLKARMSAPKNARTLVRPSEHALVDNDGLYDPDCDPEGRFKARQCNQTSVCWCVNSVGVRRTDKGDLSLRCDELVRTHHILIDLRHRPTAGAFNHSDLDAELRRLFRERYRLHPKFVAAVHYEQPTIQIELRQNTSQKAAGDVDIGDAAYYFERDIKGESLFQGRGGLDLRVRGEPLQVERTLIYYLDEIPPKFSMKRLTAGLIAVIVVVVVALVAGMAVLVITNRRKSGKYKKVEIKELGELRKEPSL


Tests used:
Test in all cases: cell-based or functional assay
[1] = molecular target: T1, TROP-2 expressed on cells
[2] = molecular target: T1, TROP-2 expressed on cells; remark: listed apart in the source
[3] = molecular target: T1, TROP-2 expressed on cells; remark: listed apart in the source

Binder | EC50, antibody endocytic activity (DT3C cell killing, CTG) [1] [pM] | Emax, antibody endocytic activity (DT3C cell killing, CTG) [1] [%] | EC50, killing activity on Colo205(++) cells [2] [pM] | EC50, killing activity on DMS53(++) cells [2] [pM] | EC50, killing activity on FaDu(+++) cells [2] [pM] | EC50, killing activity on HCC827(+++) cells [2] [pM] | Emax, killing activity on Colo205(++) cells [2] [%] | Emax, killing activity on DMS53(++) cells [2] [%] | Emax, killing activity on FaDu(+++) cells [2] [%] | Emax, killing activity on HCC827(+++) cells [2] [%] | Emax, killing activity on SK-OV-3(+) cells [2] [%] | other results
PD3 anti-TROP2 antibody (antibody, human IgG1, kappa, V domains shown) VH: EVQLVQSGSELKKPGASVKVSCKASGYTFTNYGMNWVKQAPGQGLKWMGWINTYTGEPTYTQDFKGRFAFSLDTSVSTAYLQISSLKAEDTAVYYCARGGFGSSYWYFDVWGQGTLVTVSS VL: DIQLTQSPSSLSASVGDRVSITCKASQDVSIAVAWYQQKPGKAPKLLIYSASYRYTGVPDRFSGSGSGTDFTLTISSLQPEDFAVYYCQQHYITPLTFGAGTKVEIKR | 150 | 99.1 |  |  |  |  |  |  |  |  |  | 
ADC-4 (TINA-58) (antibody, human IgG1, kappa, V domains shown, compound 58 (linker-drug) conjugated after TCEP reduction of the antibody; average n=3.99 per antibody (UV-Vis); sites not stated) VH: QVQLVQSGAEVKKPGASVKVSCKASGYTFTTAGMQWVRQAPGQGLEWMGWINTHSGVPKYAEDFKGRVTISADTSTSTAYLQLSSLKSEDTAVYYCARSGFGSSYWYFDVWGQGTLVTVSS VL: DIQMTQSPSSLSASVGDRVTITCKASQDVSTAVAWYQQKPGKAPKLLIYSASYRYTGVPSRFSGSGSGTDFTLTISSLQPEDFAVYYCQQHYITPLTFGQGTKLEIKR |  |  | 59800 | 75600 | 530 | 270 | 99.7 | 89.8 | 101 | 88.2 | 49.1 | 
ADC-7 (hRS7-9-A) (antibody, human IgG1, kappa, V domains shown, compound 9-A (linker-drug) conjugated after TCEP reduction of the antibody; average n=3.72 per antibody (UV-Vis); sites not stated) VH: QVQLQQSGSELKKPGASVKVSCKASGYTFTNYGMNWVKQAPGQGLKWMGWINTYTGEPTYTDDFKGRFAFSLDTSVSTAYLQISSLKADDTAVYFCARGGFGSSYWYFDVWGQGSLVTVSS VL: DIQLTQSPSSLSASVGDRVSITCKASQDVSIAVAWYQQKPGKAPKLLIYSASYRYTGVPDRFSGSGSGTDFTLTISSLQPEDFAVYYCQQHYITPLTFGAGTKVEIKR |  |  | 52800 | 72900 | 310 | 180 | 99.5 | 88.7 | 101 | 89.3 | 66.1 | 
ADC-5 (PD3-58) (antibody, human IgG1, kappa, V domains shown, compound 58 (linker-drug) conjugated after TCEP reduction of the antibody; average n=3.88 per antibody (UV-Vis); sites not stated) VH: EVQLVQSGSELKKPGASVKVSCKASGYTFTNYGMNWVKQAPGQGLKWMGWINTYTGEPTYTQDFKGRFAFSLDTSVSTAYLQISSLKAEDTAVYYCARGGFGSSYWYFDVWGQGTLVTVSS VL: DIQLTQSPSSLSASVGDRVSITCKASQDVSIAVAWYQQKPGKAPKLLIYSASYRYTGVPDRFSGSGSGTDFTLTISSLQPEDFAVYYCQQHYITPLTFGAGTKVEIKR |  |  |  |  |  |  |  |  |  |  |  | EC50, killing activity on Colo205 cells (second parallel assay) [3]: 25600 pM; EC50, killing activity on DMS53 cells (second parallel assay) [3]: 25700 pM; EC50, killing activity on FaDu cells (second parallel assay) [3]: 140 pM; EC50, killing activity on HCC827 cells (second parallel assay) [3]: 130 pM
TINA antibody (constructed according to WO2015098099A1) (antibody, human IgG1, kappa, V domains shown) VH: QVQLVQSGAEVKKPGASVKVSCKASGYTFTTAGMQWVRQAPGQGLEWMGWINTHSGVPKYAEDFKGRVTISADTSTSTAYLQLSSLKSEDTAVYYCARSGFGSSYWYFDVWGQGTLVTVSS VL: DIQMTQSPSSLSASVGDRVTITCKASQDVSTAVAWYQQKPGKAPKLLIYSASYRYTGVPSRFSGSGSGTDFTLTISSLQPEDFAVYYCQQHYITPLTFGQGTKLEIKR | 180 | 98.7 |  |  |  |  |  |  |  |  |  | 
hRS7 (control anti-TROP-2 antibody, constructed according to WO03074566) (antibody, human IgG1, kappa, V domains shown) VH: QVQLQQSGSELKKPGASVKVSCKASGYTFTNYGMNWVKQAPGQGLKWMGWINTYTGEPTYTDDFKGRFAFSLDTSVSTAYLQISSLKADDTAVYFCARGGFGSSYWYFDVWGQGSLVTVSS VL: DIQLTQSPSSLSASVGDRVSITCKASQDVSIAVAWYQQKPGKAPKLLIYSASYRYTGVPDRFSGSGSGTDFTLTISSLQPEDFAVYYCQQHYITPLTFGAGTKVEIKR | 180 | 98.5 |  |  |  |  |  |  |  |  |  | 
